Stoichiometry N data for one substance are collected here from PMC7858072.

In the assay the target is MBP-FhtR (faecalis heme transport regulator fused to the maltose binding protein) (Enterococcus faecalis OG1RF). The assay is described as follows: SEC; 40 uM apo- or holo- (hemin-complexed) MBP-FhtR in 100 ul loaded on Superdex 200 Increase 10/300 GL; 20 mM HEPES (pH 7), 300 mM NaCl; read at OD280 and OD410. On the technique in general: In gel filtration, larger molecules generally elute earlier.

In general, stoichiometry N refers to the number of molecules, sites or subunits per partner or assembly. As to “MBP-FhtR (faecalis heme transport regulator fused to the maltose binding protein) (natural protein)”, the stoichiometry N was 2.
